Laboratory results taken from publication PMC8244865, “Recruitment of phospholipase Cγ1 to the non-structural membrane protein pK15 of Kaposi Sarcoma-associated herpesvirus promotes its Src-dependent phosphorylation” (PLoS Pathogens, 2021).

How the values were obtained:
Assay type in all cases: binding
[1] = tested on: PLCγ1 cSH2 domain (in tSH2 aa 545–772); experiment: crystal structure with truncated PLCγ1 tSH2, cSH2 site; conditions: truncated tSH2 (aa 545–772), resolution 2.1 Å
Method: A shortened version of the PLCγ1 tSH2 domain (aa 545–772) lacking the linker peptide connecting the PLCγ1 cSH2 and SH3 domains (see Results section) was cloned into a pET28a vector carrying an N-terminal His Tag and a SUMO sequence. Expression was carried out in E. coli and the protein was purified to homogeneity as described above. His-Tag and SUMO were proteolytically removed using SUMO protease (SIGMA) following the manufacturer’s instructions, and the cleaved protein purified on a HisTrap column. Fractions containing cleaved protein were further purified by size exclusion chromatography (SEC) using a Superdex 75 26/600 column (GE Healthcare) equilibrated with 50mM Tris pH7.5, 150mM NaCl and 1mM TCEP buffer. The purified protein in SEC buffer was added to lyophilized phosphorylated 12mer pK15 peptide (DDLpYEEVLFPRN) in a 1:8 molar ratio (Protein: peptide) at a final concentration of 3mg/ml of peptide and 7.5mg/ml protein. Crystals were grown at 293 K using the sitting-drop vapor diffusion method in drops containing 1μl protein solution mixed with 1 μL reservoir solution containing 30% PEG 4000, 0.1M TrisHCl pH 8.5 and 0.2M sodium acetate. The crystals were flash frozen in the mother liquor containing 30% ethylene glycol and diffraction data were collected at P13 at DESY-Hamburg. Data were processed, scaled and reduced with XDS [75], Pointless and programs from the CCP4 suite. […]

[2] = tested on: PLCγ1 SA and PLCγ1 tSH2, nSH2 R^586L mutant; experiment: AlphaLISA, SA and tSH2 R586L mutant; conditions: phosphorylated; 300 nM each protein; versus wt PLCγ1 SA and tSH2
Method: (§1) Fig 4 The PLCγ1 cSH2 domain is required for the binding of PLCγ1 to phosphorylated pK15 in vitro and may serve as a dominant-negative inhibitor. GST-fused pK15 cytoplasmic tail WT (A), or its truncated mutant N2 [51] (B), were phosphorylated in vitro by 2xStrep-Src and an AlphaLISA was performed with the indicated His-tagged fragments of PLCγ1. Mean and standard deviation from at least two independent experiments with two technical replicates each are depicted. GST fusion proteins of the N1 (C) or N2 (D) truncation mutants of the pK15 cytoplasmic tail were phosphorylated in vitro by 2xStrep-Src and their interaction with recombinant purified PLCγ1 tSH2 (tandem SH2) or SA (γ-specific array) domains was measured by AlphaLISA in the presence of increasing concentrations (300 nM, 600 nM, 900 nM, 1200 nM) of the purified PLCγ1 cSH2. […] After 48h lysates were collected and analysed by Western blot using an antibody to PLCγ1 pY^783 to assess the level of PLCγ1 phosphorylation. (F) The intensities of the pPLCγ1 bands shown in panel E were quantified by densitometry, normalized to the values obtained with the empty vector (EV) in the presence of pK15, and plotted as relative values. […]
(§2) His-tagged PLCγ1 (SA, tSH2 or the isolated SH2 domains) was incubated at room temperature with GST-tagged K15P or its mutants for 1 hour. […] Emission at 615 nm was detected on BioTek Synergy 2 plate reader.

[3] = tested on: PLCγ1 SA and PLCγ1 tSH2, cSH2 R^694L mutant; experiment: AlphaLISA, SA and tSH2 R694L mutant; conditions: phosphorylated; 300 nM each protein
Method: as §1, §2

PLCγ1 tSH2 domain = experiment: AlphaLISA, PLCγ1 tSH2; conditions: phosphorylated by 2xStrep-Src, 300 nM each protein, 1 h room temperature, 615 nm, at least two independent experiments
Method: as §1, §2

## DDLpYEEVLFPRN [pK15 12mer, phosphorylated peptide representing the last 12 amino acids of pK15 CT (DDLp…)]
[1]
  binding site occupancy in crystal structure: unambiguously bound to the PLCγ1 cSH2 domain

B1: pK15 CT^WT: pK15 cytoplasmic tail fused to GST at its N-terminal end, phosphorylated in vitro by Src (protein)
chain: SQLLNEVELQEVNRDPPNVFGYASILVSGAEESREPSPQPDQSGMSILRVDGGSAFRIDTAQAATQPTDDLYEEVLFPRN
modifications: tyrosine-phosphorylated in vitro by Src; sites not stated for this construct; left off: GST, N-terminal, kept
[2]
  interaction (AlphaLISA): to a similar extent as wt PLCγ1 SA and PLCγ1 tSH2
[3]
  interaction (AlphaLISA): markedly reduced binding
PLCγ1 tSH2 domain
  interaction (AlphaLISA): bound more strongly to the PLCγ1 tSH2 domain than to the PLCγ1 SA domain
PLCγ1 tSH2 domain; listed as pK15 CT^N2
  interaction (AlphaLISA): binds strongly to the PLCγ1 tSH2 domain
